This note sets out measurements from PMC2288801.

For one test, the target named is collagen type I (UniProt P02452).
Test [1] deals with human plasma fibronectin (human). Description: ligand affinity chromatography.
For test [2] the target is unchanged.
Test [3] has as its target laminin from the Engelbreth-Holm-Swarm murine tumor (mouse) (UniProt P19137).

Sequence of UniProt P02452 (P02452 162-1218, chain 1 of 2): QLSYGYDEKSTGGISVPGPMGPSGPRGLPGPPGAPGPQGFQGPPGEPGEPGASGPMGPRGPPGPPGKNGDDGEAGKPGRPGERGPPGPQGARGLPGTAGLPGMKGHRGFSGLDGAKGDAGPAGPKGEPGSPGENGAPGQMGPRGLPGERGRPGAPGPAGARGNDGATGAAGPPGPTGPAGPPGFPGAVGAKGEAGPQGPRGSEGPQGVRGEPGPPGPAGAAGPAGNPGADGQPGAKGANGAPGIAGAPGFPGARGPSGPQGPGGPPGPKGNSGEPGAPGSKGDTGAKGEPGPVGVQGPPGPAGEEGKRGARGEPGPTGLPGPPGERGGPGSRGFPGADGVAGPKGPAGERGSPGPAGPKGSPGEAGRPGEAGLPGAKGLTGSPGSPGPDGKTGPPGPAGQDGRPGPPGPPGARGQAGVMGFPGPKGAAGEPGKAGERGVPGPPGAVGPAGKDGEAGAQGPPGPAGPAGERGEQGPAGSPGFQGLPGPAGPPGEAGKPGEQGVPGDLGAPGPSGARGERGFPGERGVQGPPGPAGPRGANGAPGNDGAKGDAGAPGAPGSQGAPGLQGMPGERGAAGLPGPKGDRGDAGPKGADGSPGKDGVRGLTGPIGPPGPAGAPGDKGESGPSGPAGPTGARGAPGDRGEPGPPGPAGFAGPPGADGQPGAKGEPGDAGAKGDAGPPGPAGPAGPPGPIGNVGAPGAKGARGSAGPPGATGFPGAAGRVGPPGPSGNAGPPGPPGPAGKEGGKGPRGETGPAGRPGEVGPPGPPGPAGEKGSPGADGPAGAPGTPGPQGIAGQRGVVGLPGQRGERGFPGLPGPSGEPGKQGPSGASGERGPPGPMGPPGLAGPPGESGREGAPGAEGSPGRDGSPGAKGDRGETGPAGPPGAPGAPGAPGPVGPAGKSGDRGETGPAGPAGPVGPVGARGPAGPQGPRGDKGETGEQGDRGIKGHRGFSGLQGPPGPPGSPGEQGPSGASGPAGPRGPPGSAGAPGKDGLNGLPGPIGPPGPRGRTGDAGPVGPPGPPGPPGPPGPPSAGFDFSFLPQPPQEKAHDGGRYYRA
Sequence of UniProt P02452 (P08123 80-1119, chain 2 of 2, further chain): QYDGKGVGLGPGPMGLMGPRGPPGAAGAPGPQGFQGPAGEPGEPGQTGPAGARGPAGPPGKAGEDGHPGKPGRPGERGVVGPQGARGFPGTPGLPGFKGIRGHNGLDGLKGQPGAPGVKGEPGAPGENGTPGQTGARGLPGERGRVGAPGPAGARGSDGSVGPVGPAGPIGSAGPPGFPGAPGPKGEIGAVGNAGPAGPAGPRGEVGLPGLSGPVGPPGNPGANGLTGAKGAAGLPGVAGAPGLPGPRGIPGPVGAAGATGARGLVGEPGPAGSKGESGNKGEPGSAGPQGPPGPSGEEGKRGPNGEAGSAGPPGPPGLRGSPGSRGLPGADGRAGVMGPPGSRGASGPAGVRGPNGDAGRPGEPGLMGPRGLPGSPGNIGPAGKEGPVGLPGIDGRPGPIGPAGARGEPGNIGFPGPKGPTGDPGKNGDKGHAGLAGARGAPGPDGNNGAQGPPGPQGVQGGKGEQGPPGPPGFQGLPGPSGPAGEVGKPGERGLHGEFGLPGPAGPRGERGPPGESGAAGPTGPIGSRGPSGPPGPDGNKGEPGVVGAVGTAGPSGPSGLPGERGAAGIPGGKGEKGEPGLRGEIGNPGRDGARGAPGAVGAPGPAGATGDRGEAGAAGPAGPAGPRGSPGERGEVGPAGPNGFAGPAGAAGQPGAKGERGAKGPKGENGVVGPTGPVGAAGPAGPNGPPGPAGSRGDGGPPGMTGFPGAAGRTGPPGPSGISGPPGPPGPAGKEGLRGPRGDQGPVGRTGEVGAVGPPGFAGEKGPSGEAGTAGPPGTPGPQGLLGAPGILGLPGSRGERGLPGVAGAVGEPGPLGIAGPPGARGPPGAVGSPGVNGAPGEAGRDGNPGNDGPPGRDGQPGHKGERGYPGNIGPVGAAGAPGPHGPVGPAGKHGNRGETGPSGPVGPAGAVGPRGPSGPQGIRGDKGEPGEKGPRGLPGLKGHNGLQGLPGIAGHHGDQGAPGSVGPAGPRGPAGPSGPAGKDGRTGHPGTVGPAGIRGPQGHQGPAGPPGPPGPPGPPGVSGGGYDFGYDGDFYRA

In the case of “integrin VLA-2 (alpha2 beta1) from LOX melanoma cells (from UniProt P17301;P05556) (receptor)”, the inhibition of LOX cell attachment to Coll type I by anti-VLA-2 mAb (5E8) with collagen type I came to 76%.

Consider “integrin VLA-3 (alpha3 beta1) from LOX melanoma cells (from UniProt P05556 21-798) (receptor)”, for which, in test [1], the percent of VLA-3 bound to the column is 100%.

In the test with collagen type I, “integrin VLA-3 (alpha3 beta1) from NCI-H69 small cell lung carcinoma cells (from UniProt P05556 21-798) (receptor)” registered a Table II: inhibition of binding by Ca++ relative to Mg++ (ligand Coll-I,IV) of 15% and a Table II: stimulation of binding by Mn++ relative to Mg++ (ligand Coll-I,IV) of 1.4 fold.

“integrin VLA-5 (alpha5 beta1) from LOX melanoma cells (from UniProt P05556 21-798) (receptor)” returned an inhibition of LOX cell attachment to Fn by anti-VLA-5 mAb (P1D6) in test [2] of 85%.

Regarding “integrin VLA-6 (alpha6 beta1) (from UniProt P05556 21-798) (receptor)”, in test [3], the inhibition of LOX cell attachment to Lm by anti-VLA-6 mAb (GoH3) is 77% and the inhibition of NCI-H69 cell attachment to Lm by anti-VLA-6 mAb GoH3 was 53%.
